Data taken from patent US20180244758A1.

Assays:
[1] = biological target: SUDV GP on rVSV particles (Sudan virus (SUDV)) (UniProt Q66814); assay: cell-based or functional assay
[2] = biological target: BDBV GP on rVSV particles (Bundibugyo virus (BDBV)); assay: cell-based or functional assay
[3] = biological target: GP of authentic (wild-type) SUDV (Sudan virus (SUDV)) (UniProt Q66814); assay: cell-based or functional assay
[4] = biological target: GP of authentic (wild-type) BDBV (Bundibugyo virus (BDBV)); assay: cell-based or functional assay
[5] = biological target: TAFV GP on VSV pseudotype particles (Tai Forest virus (TAFV)) (UniProt Q66810); assay: cell-based or functional assay
Chain of TAFV GP on VSV pseudotype particles (Tai Forest virus (TAFV)) (Q66810 33-676): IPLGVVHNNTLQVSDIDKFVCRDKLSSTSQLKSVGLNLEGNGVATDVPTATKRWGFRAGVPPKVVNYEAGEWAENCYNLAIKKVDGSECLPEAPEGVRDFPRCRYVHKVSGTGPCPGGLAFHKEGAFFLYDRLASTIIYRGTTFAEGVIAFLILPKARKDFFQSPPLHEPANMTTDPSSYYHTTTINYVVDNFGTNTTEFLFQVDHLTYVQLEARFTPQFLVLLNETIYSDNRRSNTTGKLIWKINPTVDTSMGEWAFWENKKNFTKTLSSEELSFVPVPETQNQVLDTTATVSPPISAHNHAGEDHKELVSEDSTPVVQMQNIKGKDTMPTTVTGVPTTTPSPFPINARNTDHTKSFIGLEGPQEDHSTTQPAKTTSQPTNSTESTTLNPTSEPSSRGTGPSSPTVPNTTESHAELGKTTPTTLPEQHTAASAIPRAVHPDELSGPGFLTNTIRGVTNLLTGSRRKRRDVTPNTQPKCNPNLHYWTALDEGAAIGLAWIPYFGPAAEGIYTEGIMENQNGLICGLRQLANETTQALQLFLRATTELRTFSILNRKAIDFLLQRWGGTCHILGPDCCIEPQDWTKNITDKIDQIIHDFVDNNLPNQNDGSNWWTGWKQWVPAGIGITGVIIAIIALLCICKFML

[6] = biological target: EBOV GP on rVSV particles (Ebola virus (EBOV)) (UniProt Q05320); assay: cell-based or functional assay
Chain of EBOV GP on rVSV particles (Ebola virus (EBOV)) (Q05320 33-676): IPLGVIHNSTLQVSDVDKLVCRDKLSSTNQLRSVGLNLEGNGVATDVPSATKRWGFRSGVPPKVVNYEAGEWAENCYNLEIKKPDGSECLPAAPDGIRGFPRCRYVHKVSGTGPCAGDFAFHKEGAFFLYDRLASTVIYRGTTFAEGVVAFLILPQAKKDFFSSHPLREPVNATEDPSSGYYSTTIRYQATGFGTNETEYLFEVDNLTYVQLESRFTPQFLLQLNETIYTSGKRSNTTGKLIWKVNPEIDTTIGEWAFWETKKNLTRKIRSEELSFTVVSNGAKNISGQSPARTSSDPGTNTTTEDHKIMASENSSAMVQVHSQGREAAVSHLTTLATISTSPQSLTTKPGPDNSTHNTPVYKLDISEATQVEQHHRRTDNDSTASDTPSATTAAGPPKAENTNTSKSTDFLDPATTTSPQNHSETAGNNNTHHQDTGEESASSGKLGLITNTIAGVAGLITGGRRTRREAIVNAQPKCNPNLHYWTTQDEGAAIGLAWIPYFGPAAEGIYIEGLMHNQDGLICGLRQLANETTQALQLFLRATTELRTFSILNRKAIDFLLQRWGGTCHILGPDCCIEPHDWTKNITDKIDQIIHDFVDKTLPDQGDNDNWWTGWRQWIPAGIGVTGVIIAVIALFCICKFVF

[7] = biological target: GP of authentic (wild-type) EBOV (Ebola virus (EBOV)) (UniProt P87666); assay: cell-based or functional assay
Chain of GP of authentic (wild-type) EBOV (Ebola virus (EBOV)) (P87666 33-676): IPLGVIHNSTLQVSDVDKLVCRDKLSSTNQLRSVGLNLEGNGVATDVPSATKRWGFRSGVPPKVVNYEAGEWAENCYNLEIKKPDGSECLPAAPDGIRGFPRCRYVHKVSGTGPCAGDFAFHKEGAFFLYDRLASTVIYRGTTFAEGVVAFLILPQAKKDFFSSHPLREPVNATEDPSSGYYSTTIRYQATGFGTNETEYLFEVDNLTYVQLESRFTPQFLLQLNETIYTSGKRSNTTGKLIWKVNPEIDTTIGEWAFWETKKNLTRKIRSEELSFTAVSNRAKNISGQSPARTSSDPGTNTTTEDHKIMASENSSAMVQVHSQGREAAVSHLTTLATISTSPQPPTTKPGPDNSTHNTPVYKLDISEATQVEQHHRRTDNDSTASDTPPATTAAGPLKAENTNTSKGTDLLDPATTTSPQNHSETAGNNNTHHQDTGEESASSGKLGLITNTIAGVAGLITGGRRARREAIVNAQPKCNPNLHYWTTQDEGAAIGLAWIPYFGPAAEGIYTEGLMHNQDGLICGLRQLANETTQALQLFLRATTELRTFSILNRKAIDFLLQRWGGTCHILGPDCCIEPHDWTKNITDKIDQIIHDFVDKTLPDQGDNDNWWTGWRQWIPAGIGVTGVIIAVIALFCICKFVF

[8] = biological target: EBOV GPCL (cleaved GP) (Ebola virus (EBOV)) (UniProt Q05320)
Chain of EBOV GPCL (cleaved GP) (Ebola virus (EBOV)) (Q05320 33-190 limits assumed, chain 1 of 2): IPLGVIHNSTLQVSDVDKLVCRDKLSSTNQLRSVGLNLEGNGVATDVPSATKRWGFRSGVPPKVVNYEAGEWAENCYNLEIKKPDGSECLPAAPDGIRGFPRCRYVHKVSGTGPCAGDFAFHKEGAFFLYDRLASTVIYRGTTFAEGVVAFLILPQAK
Chain of EBOV GPCL (cleaved GP) (Ebola virus (EBOV)) (Q05320 502-637 limits assumed, chain 2 of 2): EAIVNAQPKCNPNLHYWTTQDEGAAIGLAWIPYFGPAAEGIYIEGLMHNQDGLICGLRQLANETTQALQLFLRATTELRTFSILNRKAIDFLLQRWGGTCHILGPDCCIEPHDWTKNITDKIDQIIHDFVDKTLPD

Chain of SUDV GP on rVSV particles (Sudan virus (SUDV)) (Q66814 33-676): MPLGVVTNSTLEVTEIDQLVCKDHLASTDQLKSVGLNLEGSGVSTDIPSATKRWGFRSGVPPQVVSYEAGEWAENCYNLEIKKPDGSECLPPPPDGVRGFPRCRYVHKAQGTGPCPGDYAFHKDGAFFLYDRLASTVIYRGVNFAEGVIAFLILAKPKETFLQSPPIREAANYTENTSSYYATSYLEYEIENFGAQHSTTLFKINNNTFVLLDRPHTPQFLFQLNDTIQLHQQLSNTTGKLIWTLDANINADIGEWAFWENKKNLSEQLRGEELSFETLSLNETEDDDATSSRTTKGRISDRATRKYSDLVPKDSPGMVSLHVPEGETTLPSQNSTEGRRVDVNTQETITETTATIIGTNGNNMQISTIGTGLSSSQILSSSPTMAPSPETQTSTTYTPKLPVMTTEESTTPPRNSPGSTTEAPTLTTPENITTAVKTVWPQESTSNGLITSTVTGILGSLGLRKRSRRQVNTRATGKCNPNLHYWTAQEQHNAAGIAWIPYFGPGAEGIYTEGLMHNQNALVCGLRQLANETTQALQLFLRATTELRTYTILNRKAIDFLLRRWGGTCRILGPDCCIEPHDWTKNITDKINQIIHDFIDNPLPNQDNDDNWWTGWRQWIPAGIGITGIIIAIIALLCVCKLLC
Chain of GP of authentic (wild-type) SUDV (Sudan virus (SUDV)) (Q66814 33-676): as above

Binder	rVSV-GP neutralization IC50 [1]	rVSV-GP neutralization IC50 [2]	Authentic virus neutralization IC50 [3]	Authentic virus neutralization IC50 [4]	rVSV-GP neutralization IC50 [5]	rVSV-GP neutralization IC50 [6]	Authentic virus neutralization IC50 [7]	Kd [8]
mAb PE-64 (antibody, V domains shown) VH: EVQLVESGGGLVKPGGSLRLSCAASGFTFSNAWMSWVRQAPGKGLEWVGRIKSKTDGGTIDYAAPVKGRFTISRDDSKNTVYLQMTSLKTEDTAVYYCTTYTEDMRYFDWLLRGGETFDYWGQGTLVTVSS VL: DIRLTQSPSSLSASVGDRVTITCRASHYISTYLNWYQQKPGKAPKLLIYAASNLQSGVPSRFSGSGFGTDFSLTISSLQPEDFATYHCQQSYSTPGRYTFGQGTKVEIK	40 nM	0.4 nM	120 nM	1.5 nM	8 nM	2.5 nM	0.6 nM	–
mAb PE-87 (antibody, V domains shown) VH: QVQLVQSGVTLVQPGGSLRVSCAASGFTFSSYAMSWVRQAPGKGLEWVSAISGLGGSTYYADSVKGRFTISRDNSKNTLYLQMNSLRAEDTAVYYCAKDHRVWAAGYHFDYWGQGALVTVSS VL: DIVLTQSPSTLSASVGDRVTITCRASQSISSWLAWYQQKPGEAPKLLISDASSLESGVPSRFSGSGSGTEFTLTISSLQPDDFATYYCQQYYSSPTFGGGTKVEIK	–	–	–	–	–	–	–	< 0.001 nM
